According to patent US7144731B2, “SCF antibody compositions and methods of using the same” (Amgen Inc., priority 1989, dated 2006):

What was measured:
[1] = system: 5-FU treated mouse bone marrow cells; test: HPP-CFC assay; type: cell-based; conditions: COS-1 supernatant
Text: There are a variety of biological activities which can be attributed to the natural mammalian rat SCF as well as the recombinant rat SCF protein. One such activity is its effect on early hematopoietic cells. This activity can be measured in a High Proliferative Potential Colony Forming Cell (HPP-CFC) assay [Zsebo, et al., supra (1988)]. To investigate the effects of factors on early hematopoietic cells, the HPP-CFC assay system utilizes mouse bone marrow derived from animals 2 days after 5-fluorouracil (5-FU) treatment. […] The rat SCF is plated in the presence of CSF-1 or IL-6 in semi-solid agar cultures. The agar cultures contain McCoys complete medium (GIBCO), 20% fetal bovine serum, 0.3% agar, and 2×10^5 bone marrow cells/ml. The McCoys complete medium contains the following components: 1× McCoys medium supplemented with 0.1 mM pyruvate, 0.24× essential amino acids, 0.24× non-essential amino acids, 0.027% sodium bicarbonate, 0.24× vitamins, 0.72 mM glutamine, 25 μg/ml L-serine, and 12 μg/ml L-asparagine. The bone marrow cells are obtained from Balb/c mice injected i.v. with 150 mg/kg 5-FU. The femurs are harvested 2 days post 5-FU treatment of the mice and bone marrow is flushed out. The red blood cells are lysed with red blood cell lysing reagent (Becton Dickenson) prior to plating. Test substances are plated with the above mixture in 30 mm dishes. Fourteen days later the colonies (>1 mm in diameter) which contain thousands of cells are scored. This assay was used throughout the purification of natural mammalian cell-derived rat SCF.

human bone marrow = test: Human bone marrow colony assay; type: cell-based; conditions: COS-1 CM, 20 U/ml EPO, 14 days, colonies ≥0.2 mm
Experimental: The cDNA of human SCF corresponding to amino acids 1–162 obtained by PCR reactions outlined in Example 3D, was expressed in COS-1 cells as described for the rat SCF in Example 4. COS-1 supernatants were assayed on human bone marrow as well as in the murine HPP-CFC and MC/9 assays. […] The culture conditions of the assay were as follows: human bone marrow from healthy volunteers was centrifuged over Ficoll-Hypaque gradients (Pharmacia) and cultured in 2.1% methyl cellulose, 30% fetal calf serum, 6×10^−5 M 2-mercaptoethanol, 2 mM glutamine, ISCOVE'S medium (GIBCO), 20 U/ml EPO, and 1×10^5 cells/ml for 14 days in a humidified atmosphere containing 7% O2, 10% CO2, and 83% N2. Only those colonies of 0.2 mm in size or larger are indicated.
Recombinant human SCF was tested in agar colony assays on human bone marrow in combination with other growth factors as described above.

KG-1 = KG-1 soft agar cloning assay; type: cell-based, human; conditions: COS-1 supernatant, 25 μl assayed; triplicate
Experimental: Another activity of recombinant human SCF is the ability to cause proliferation in soft agar of the human acute myelogenous leukemia (AML) cell line, KG-1 (ATCC CCL 246). COS-1 supernatants from transfected cells were tested in a KG-1 agar cloning assay [Koeffler et al., Science, 200, 1153–1154 (1978)] essentially as described except cells were plated at 3000/ml.

W/W^v mice = test: Bone marrow transplantation model in W/W^v mice; type: in vivo, mouse
Experimental: A. Rat SCF in Bone Marrow Transplanation COS-1 cells were transfected with V19.8 SCF^1-162 in a large scale experiment (T175 cm^2 flasks instead of 60 mm dishes) as described in Example 4. Approximately 270 ml of supernatant was harvested. This supernatant was chromatographed on wheat germ agglutinin-agarose and S-Sepharose essentially as described in Example 1. The recombinant SCF was evaluated in a bone marrow transplantation model based on murine W/W^v genetics. The W/W^v mouse has a stem cell defect which among other features results in a macrocytic anemia (large red cells) and allows for the transplantation of bone marrow from normal animals without the need for irradiation of the recipient animals [Russel, et al., Science, 144, 844–846 (1964)). […]
In the following example, each group contained six age matched mice. […] The blood profile of the recipient animals is followed at different times post transplantation and engraftment of the donor marrow is determined by the shift of the peripheral blood cells from recipient to donor phenotype. The conversion from recipient to donor phenotype is detected by monitoring the forward scatter profile (FASCAN, Becton Dickenson) of the red blood cells. […] An independent qualitative indicator of engraftment is the hemoglobin type detected by hemoglobin electrophoresis of the recipient blood [Wong, et al., Mol. and Cell. […]

normal human bone marrow = test: Human CFU-GM assay; type: cell-based
[2] = system: murine mast cell line, MC/9; test: MC/9 ^3H-thymidine uptake assay; type: cell-based
Experimental: Another useful biological activity of both naturally-derived and recombinant rat SCF is the ability to cause the proliferation of the […] murine mast cell line, MC/9 (ATCC CRL 8306). MC/9 cells are cultured with a source of […] according to the ATCC CRL 8306 protocol. The medium used in the bioassay is RPMI 1640, 4% fetal bovine serum, 5×10^−5M 2-mercaptoethanol, and 1× glutamine-pen-strep. The MC/9 cells proliferate in response to SCF without the requirement for other growth factors. This proliferation is measured by first culturing the cells for 24 h without growth factors, plating 5000 cells in each well of 96 well plates with test sample for 48 h, pulsing for 4 h with 0.5 uCi ^3H-thymidine (specific activity 20 Ci/mmol), harvesting the solution onto glass fiber filters, and then measuring specifically-bound radioactivity. This assay was used in the purification of mammalian cell derived rat SCF after the ACA 54 gel filtration step, section C2 of this Example. Typically, SCF caused a 4–10 fold increase in CPM over background.

irradiated dogs = test: Canine DLA-identical littermate marrow transplantation; type: in vivo, dog; conditions: 920 cGy TBI + marrow
Text: SCF alone enhances hematopoietic recovery following bone marrow transplantation. A variety of experimental variables have been tested in a canine model of bone marrow transplantation, Schuening et al., 76 636–640. In one set of experiments for the present invention, dogs received either G-CSF or SCF after 920 cGy of total body irradiation and 4×10^8 mononuclear marrow cells per kilogram from a DLA-identical littermate. The hematologic recovery, as measured by day of neutrophil recovery to 500 or 1000/mm^3, is accelerated when either SCF or G-CSF is administered compared to control animals that received no growth factor (Table 21). Recovery was 2–6 days earlier in animals that received SCF than it was in those that received no growth factor. As noted above, combinations of appropriate growth factors with SCF will accelerate and enhance the response to those growth factors following hematopoietic transplantation.

B1: V19.8 rat SCF^1-162: recombinant rat SCF truncated at amino acid 162, supernatant of COS-1 or CHO cells transfected with V19.8 (protein)
chain: MKKTQTWIITCIYLQLLLFNPLVKTQEICRNPVTDNVKDITKLVANLPNDYMITLNYVAGMDVLPSHCWLRDMVTHLSVSLTTLLDKFSNISEGLSNYSIIDKLGKIVDDLVACMEENAPKNVKESLKKPETRNFTPEEFFSIFNRSIDAFKDFMVASDTSD
B1 was tested. Which “Colony #/200,000 cells” value ([1]; 3 μl CM assayed) did it give?
The value was 8.

And the “Colony #/200,000 cells” value ([1]; 6 μl CM assayed)?
The value was 30.

What about the “Colony #/200,000 cells” value ([1]; 12 μl CM assayed) of the same molecule?
The value was >50.

What about the “Colony #/200,000 cells” value ([1]; 25 μl CM assayed) of the same molecule?
Its value is >50.

What about the “Colony #/200,000 cells” value ([1]; 50 μl CM assayed) of the same molecule?
Its value is >50.

What about the “Colony #/200,000 cells” value ([1]; 100 μl CM assayed) of the same molecule?
The value was >50.

What about the “Colony #/100,000 cells ± SD” value (human bone marrow; 50 μl assayed) of the same molecule?
Its value is 10.

What about the “Colony #/100,000 cells ± SD” value (human bone marrow; 100 μl assayed) of the same molecule?
The value was 13 ± 1.

What about the “Colony #/3000 Cells ± SD” value (KG-1) of the same molecule?
Its value is 6 ± 1.

And the “time to conversion to donor phenotype” value (W/W^v mice; SCF pre-treated group (600 U/ml, 37° C., 20 min))?
Its value is ≤ 29 days post-transplantation.

What about the “engraftment of donor marrow vs untreated control” value (W/W^v mice; cells pre-treated with 600 U/ml or recipients ~400 U/day sub-Q for 3 days) of the same molecule?
Its value is “engrafted faster”.

What about the “synergistic activity in CFU-GM assay” value (normal human bone marrow) of the same molecule?
The value was “synergized with human GM-CSF, human IL-3, and human CSF-1”.

What about the “Colony #/100,000 cells (±SEM)” value (normal human bone marrow; average of triplicate cultures, SCF = COS-1 supernatant 4 days after transfection) of the same molecule?
Its value is 0.

What about the cpm ([2]; COS-1 supernatant, 3 μl CM assayed) of the same molecule?
Its cpm is 9,638 cpm.

And the cpm ([2]; COS-1 supernatant, 6 μl CM assayed)?
The cpm was 11,482 cpm.

And the cpm ([2]; COS-1 supernatant, 12 μl CM assayed)?
Its cpm is 11,322 cpm.

What about the cpm ([2]; COS-1 supernatant, 25 μl CM assayed) of the same molecule?
Its cpm is 11,648 cpm.

What about the cpm ([2]; stable CHO cell supernatant, volume assayed 1.5) of the same molecule?
The cpm was 7,160 cpm.

What about the cpm ([2]; stable CHO cell supernatant, volume assayed 3) of the same molecule?
The cpm was 14,714 cpm.

And the cpm ([2]; stable CHO cell supernatant, volume assayed 6)?
Its cpm is 30,657 cpm.

What about the cpm ([2]; stable CHO cell supernatant, volume assayed 12) of the same molecule?
The cpm was 34,973 cpm.

And the cpm ([2]; stable CHO cell supernatant, volume assayed 25)?
The cpm was 33,926 cpm.

B2: rcG-CSF: recombinant canine G-CSF (protein, UniProt P35834 1-175, looked up)
Granulocyte …: MAPLGPTGPLPQSFLLKCLEQMRKVQADGTALQETLCATHQLCHPEELVLLGHALGIPQPPLSSCSSQALQLMGCLRQLHSGLFLYQGLLQALAGISPELAPTLDTLQLDTTDFAINIWQQMEDLGMAPAVPPTQGTMPAFTSAFQRRAGGVLVASNLQSFLELAYRALRHFAKP
Which “Recovery of ANC > 1000/mm^3” value (irradiated dogs; 10 days treatment following transplant) does the source give for B2 here?
The value was “Day 8”.

And the “Recovery of ANC > 500 mm^3” value (irradiated dogs; 10 days treatment following transplant (rcSCF 200, rcG-CSF 10 μg/kg/day SC))?
Its value is “Day 7”.
